# Data published in patent publication US20250243260A1 (ALPINE IMMUNE SCIENCES, published 2025).
# Tests used:
# [1] = molecular target: human CD28 (endogenously expressed on primary human T cells) (human) (UniProt P10747); assay: flow cytometry, primary human T cells
# human PD-L1 [2] = molecular target: T1, human PD-L1 (human, UniProt Q9NZQ7 19-290); assay: flow cytometry, SCC152 cells transduced with human PD-L1; MFI against WT CD80 ECD-Fc
# T1 construct: whole, on cells
# Experimental: (§1) Binding affinity to CD28 was determined using primary human T cells which endogenously express CD28. Binding to PD-L1 was determined using SCC152 cells transduced with human PD-L1. Binding to CTLA-4 was measured using Chinese hamster ovary (CHO) cells stably transduced to express human CTLA-4.
# (§2) For staining and analysis by flow cytometry, 75,000 human T cells, SCC152/PD-L1 cells, or CHO/CTLA-4 cells were plated in 96-well round-bottom plates. Cells were spun down and resuspended in staining buffer (PBS (phosphate buffered saline), 1% BSA (bovine serum albumin), 1 mM EDTA, and 0.1% sodium azide) for 20 minutes to block non-specific binding. Afterwards, cells were centrifuged, stain buffer aspirated, and then resuspended in 50 μL of a 1:5 serial dilution of each CD80-Fc candidate variant starting at 100 nM ending at 0.8 nM. Primary staining was performed on ice for 60 minutes, before washing cells in […] staining buffer three times. PE-conjugated anti-human Fc (Jackson ImmunoResearch, USA) was diluted 1:250 in 50 μL staining buffer and added to cells and incubated another 30 minutes at 4° C. Cells were washed two times in 150 μL stain buffer and then fixed in 2% formaldehyde/PBS for 5 minutes at room temperature. Samples were analyzed CytoFLEX LX flow cytometer (Beckman Coulter, USA). Median Fluorescence Intensity (MFI) was calculated for each cell type using the CytExpert software from Beckman Coulter.
# (§3) Binding assays were carried out to assess the specificity and affinity of multivalent proteins to cell-expressed CTLA-4, CD28, and PD-L1 counter structures.
# human PD-L1 [3] = molecular target: T1, human PD-L1; assay: flow cytometry, SCC152 cells transduced with human PD-L1, anti-human Fc detection
# Experimental: as §1, §2, §3
# [4] = molecular target: T2, human CTLA-4 on CHO cells (human, UniProt P16410 36-223); assay: flow cytometry, CHO/CTLA-4 cells
# T2 construct: whole, on cells; also called CHO/CTLA-4
# Experimental: as §1, §2, §3
# human CD28 on cells [5] = molecular target: T3, human CD28 on cells (human, UniProt P10747 19-220); assay: flow cytometry, primary human T cells
# T3 construct: whole, on cells
# Experimental: as §1, §2, §3
# human CD28 on cells [6] = molecular target: T3, human CD28 on cells; assay: cell-based or functional assay
# T1 sequence (Q9NZQ7 19-290): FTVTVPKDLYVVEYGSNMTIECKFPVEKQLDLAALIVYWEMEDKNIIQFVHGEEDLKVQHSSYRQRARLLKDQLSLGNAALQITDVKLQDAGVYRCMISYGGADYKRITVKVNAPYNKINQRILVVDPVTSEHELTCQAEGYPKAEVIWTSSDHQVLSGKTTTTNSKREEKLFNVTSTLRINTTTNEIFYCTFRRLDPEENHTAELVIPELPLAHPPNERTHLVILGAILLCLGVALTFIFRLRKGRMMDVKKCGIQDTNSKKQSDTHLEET
# T2 sequence (P16410 36-223): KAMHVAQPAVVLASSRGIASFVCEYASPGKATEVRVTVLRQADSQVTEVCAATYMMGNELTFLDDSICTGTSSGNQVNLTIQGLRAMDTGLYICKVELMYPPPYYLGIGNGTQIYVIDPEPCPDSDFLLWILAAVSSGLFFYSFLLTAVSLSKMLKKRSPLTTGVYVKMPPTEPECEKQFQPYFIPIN
Molecule,MFI (anti-human Fc) at 0.8 nM [1] [MFI],MFI (anti-human Fc) at 4 nM [1] [MFI],MFI (anti-human Fc) at 20 nM [1] [MFI],MFI (anti-human Fc) at 100 nM [1] [MFI],fold change of MFI vs WT CD80 at 20 nM [1] [fold],Anti-Human Fc (MFI) at 0.8 nM [4] [MFI],Anti-Human Fc (MFI) at 4 nM [4] [MFI],Anti-Human Fc (MFI) at 20 nM [4] [MFI],Anti-Human Fc (MFI) at 100 nM [4] [MFI],Anti-Human Fc (MFI) at 0.8 nM (human CD28 on cells [5]) [MFI],Anti-Human Fc (MFI) at 4 nM (human CD28 on cells [5]) [MFI],Anti-Human Fc (MFI) at 20 nM (human CD28 on cells [5]) [MFI],Anti-Human Fc (MFI) at 100 nM (human CD28 on cells [5]) [MFI],also measured
"CD80-Fc-CD80_338 (CD80_180 E10G/V11W/T28Y/M47L, IgG1 Fc) (Fc fusion, tetravalent) VIHVTKEVKGWATLSCGHNVSVEELAQYRIYWQKEKKMVLTMMSGDLNIWPEYKNRTIFDITNNLSIVILALRPSDEGTYECVVLKYEKDAFKREHLAEVTLSVKADGSGGGGSDKTHTCPPCPAPEAEGAPSVFLFPPKPKDTLMISRTPEVTCVVVDVSHEDPEVKFNWYVDGVEVHNAKTKPREEQYNSTYRVVSVLTVLHQDWLNGKEYKCKVSNKALPAPIEKTISKAKGQPREPQVYTLPPSRDELTKNQVSLTCLVKGFYPSDIAVEWESNGQPENNYKTTPPVLDSDGSFFLYSKLTVDKSRWQQGNVFSCSVMHEALHNHYTQKSLSLSPGGGGGSGGGGSGGGGSVIHVTKEVKGWATLSCGYNVSVEELAQYRIYWQKEKKMVLTMMSGDLNIWPEYKNRTIFDITNNLSIVILALRPSDEGTYECVVLKYEKDAFKREHLAEVTLSVKAD",,,,,,,,,,,,,,Fold change vs WT CD80 @20 nM (human PD-L1 [2]): 16.2 fold; Anti-Human Fc (MFI) at 0.8 nM (human PD-L1 [3]): 6250 MFI; Anti-Human Fc (MFI) at 4 nM (human PD-L1 [3]): 9300 MFI; Anti-Human Fc (MFI) at 20 nM (human PD-L1 [3]): 11000 MFI; Anti-Human Fc (MFI) at 100 nM (human PD-L1 [3]): 12500 MFI
CD80-Fc-CD80_338 (Fc fusion) VIHVTKEVKGWATLSCGHNVSVEELAQYRIYWQKEKKMVLTMMSGDLNIWPEYKNRTIFDITNNLSIVILALRPSDEGTYECVVLKYEKDAFKREHLAEVTLSVKADGSGGGGSDKTHTCPPCPAPEAEGAPSVFLFPPKPKDTLMISRTPEVTCVVVDVSHEDPEVKFNWYVDGVEVHNAKTKPREEQYNSTYRVVSVLTVLHQDWLNGKEYKCKVSNKALPAPIEKTISKAKGQPREPQVYTLPPSRDELTKNQVSLTCLVKGFYPSDIAVEWESNGQPENNYKTTPPVLDSDGSFFLYSKLTVDKSRWQQGNVFSCSVMHEALHNHYTQKSLSLSPGGGGGSGGGGSGGGGSVIHVTKEVKGWATLSCGYNVSVEELAQYRIYWQKEKKMVLTMMSGDLNIWPEYKNRTIFDITNNLSIVILALRPSDEGTYECVVLKYEKDAFKREHLAEVTLSVKAD,,,,,,367000,439000,470000,511000,552,926,1350,2330,
"CD80-Fc-CD80_339 (Fc fusion, also called CD80_185 V11Y/T28Y/M47L barbell) VIHVTKEVKEYATLSCGHNVSVEELAQYRIYWQKEKKMVLTMMSGDLNIWPEYKNRTIFDITNNLSIVILALRPSDEGTYECVVLKYEKDAFKREHLAEVTLSVKADGSGGGGSPCPPCPAPEFLGGPSVFLFPPKPKDTLMISRTPEVTCVVVDVSQEDPEVQFNWYVDGVEVHNAKTKPREEQFNSTYRVVSVLTVLHQDWLNGKEYKCKVSNKGLPSSIEKTISKAKGQPREPQVYTLPPSQEEMTKNQVSLTCLVKGFYPSDIAVEWESNGQPENNYKTTPPVLDSDGSFFLYSRLTVDKSRWQEGNVFSCSVMHEALHNHYTQKSLSLSLGGGGGSGGGGSGGGGSVIHVTKEVKEYATLSCGYNVSVEELAQYRIYWQKEKKMVLTMMSGDLNIWPEYKNRTIFDITNNLSIVILALRPSDEGTYECVVLKYEKDAFKREHLAEVTLSVKAD",,,,,,210000,305000,322000,320000,520,793,1020,1380,
"CD80-Fc-CD80_339 (CD80_185 V11Y/T28Y/M47L) (Fc fusion, tetravalent) VIHVTKEVKEYATLSCGHNVSVEELAQYRIYWQKEKKMVLTMMSGDLNIWPEYKNRTIFDITNNLSIVILALRPSDEGTYECVVLKYEKDAFKREHLAEVTLSVKADGSGGGGSPCPPCPAPEFLGGPSVFLFPPKPKDTLMISRTPEVTCVVVDVSQEDPEVQFNWYVDGVEVHNAKTKPREEQFNSTYRVVSVLTVLHQDWLNGKEYKCKVSNKGLPSSIEKTISKAKGQPREPQVYTLPPSQEEMTKNQVSLTCLVKGFYPSDIAVEWESNGQPENNYKTTPPVLDSDGSFFLYSRLTVDKSRWQEGNVFSCSVMHEALHNHYTQKSLSLSLGGGGGSGGGGSGGGGSVIHVTKEVKEYATLSCGYNVSVEELAQYRIYWQKEKKMVLTMMSGDLNIWPEYKNRTIFDITNNLSIVILALRPSDEGTYECVVLKYEKDAFKREHLAEVTLSVKAD",,,,,,,,,,,,,,Fold change vs WT CD80 @20 nM (human PD-L1 [2]): 10.4 fold; Anti-Human Fc (MFI) at 0.8 nM (human PD-L1 [3]): 4180 MFI; Anti-Human Fc (MFI) at 4 nM (human PD-L1 [3]): 6180 MFI; Anti-Human Fc (MFI) at 20 nM (human PD-L1 [3]): 7120 MFI; Anti-Human Fc (MFI) at 100 nM (human PD-L1 [3]): 8090 MFI
"CD80-Fc-CD80_341 (Fc fusion, also called CD80_197 V11Y/E35D/Y87Q/T101R barbell) VIHVTKEVKEYATLSCGHNVSVEELAQTRIYWQKDKKMVLTMMSGDMNIWPEYKNRTIFDITNNLSIVILALRPSDEGTYECVVLKQEKDAFKREHLAEVRLSVKADGSGGGGSPCPPCPAPEFLGGPSVFLFPPKPKDTLMISRTPEVTCVVVDVSQEDPEVQFNWYVDGVEVHNAKTKPREEQFNSTYRVVSVLTVLHQDWLNGKEYKCKVSNKGLPSSIEKTISKAKGQPREPQVYTLPPSQEEMTKNQVSLTCLVKGFYPSDIAVEWESNGQPENNYKTTPPVLDSDGSFFLYSRLTVDKSRWQEGNVFSCSVMHEALHNHYTQKSLSLSLGGGGGSGGGGSGGGGSVIHVTKEVKEYATLSCGYNVSVEELAQTRIYWQKDKKMVLTMMSGDMNIWPEYKNRTIFDITNNLSIVILALRPSDEGTYECVVLKQEKDAFKREHLAEVRLSVKAD",,,,,,206000,280000,297000,282000,676,1070,1410,1740,"Fold change vs WT CD80 @20 nM [4]: 0.36 fold; Fold Increase over WT at 50 nM (human CD28 on cells [6]): 6.42 fold; Rel. Luminescence Units (RLU) at 2 nM, K562/OKT3/PD-L1 + Jurkat/IL-2 reporter (human CD28 on cells [6]): 13100 RLU; Rel. Luminescence Units (RLU) at 10 nM, K562/OKT3/PD-L1 + Jurkat/IL-2 reporter (human CD28 on cells [6]): 16000 RLU; Rel. Luminescence Units (RLU) at 50 nM, K562/OKT3/PD-L1 + Jurkat/IL-2 reporter (human CD28 on cells [6]): 15700 RLU; Rel. Luminescence Units (RLU) at 250 nM, K562/OKT3/PD-L1 + Jurkat/IL-2 reporter (human CD28 on cells [6]): 15200 RLU; Fold change vs WT CD80 @20 nM (human CD28 on cells [5]): 7.8 fold"

# Now from value to molecule, other results behind:
MFI (anti-human Fc) at 0.8 nM [1] [MFI],MFI (anti-human Fc) at 4 nM [1] [MFI],MFI (anti-human Fc) at 20 nM [1] [MFI],MFI (anti-human Fc) at 100 nM [1] [MFI],fold change of MFI vs WT CD80 at 20 nM [1] [fold],Anti-Human Fc (MFI) at 0.8 nM [4] [MFI],Anti-Human Fc (MFI) at 4 nM [4] [MFI],Anti-Human Fc (MFI) at 20 nM [4] [MFI],Anti-Human Fc (MFI) at 100 nM [4] [MFI],Anti-Human Fc (MFI) at 0.8 nM (human CD28 on cells [5]) [MFI],Anti-Human Fc (MFI) at 4 nM (human CD28 on cells [5]) [MFI],Anti-Human Fc (MFI) at 20 nM (human CD28 on cells [5]) [MFI],Anti-Human Fc (MFI) at 100 nM (human CD28 on cells [5]) [MFI],Molecule,also measured
193,209,224,283,1.2,,,,,,,,,"CD80_227-Fc, variant CD80 IgV-Fc V11W/T28H/D46Q/V68L/L85E (Fc fusion)",
190,195,223,318,1.2,,,,,,,,,"CD80_223-Fc, variant CD80 IgV-Fc E10S/V68M/Y87P (Fc fusion)",
245,246,262,298,1.5,,,,,,,,,"CD80_194-Fc, variant CD80 IgV-Fc V11Y/M42W/T62A (Fc fusion)",
